The source of these data is publication PMC8239462 (2021).

The target in experiment [1] is LRP1 Cluster IV (commercial) (Homo sapiens). Kind of experiment: SPR.
Experiment [2] addresses T1, LRP1 CR.7 singlet (human, UniProt Q07954 1013-1053). Description: SPR; CR.7 expressed without RAP (RAP-).
The target of experiment [3] is T2, vLDLR CR cluster (8 CRs), recombinant, secreted from Sf9 cells (human, UniProt P98155 28-355). Kind of experiment: SPR; vLDLR cluster expressed with RAP (RAP+). Background: SPR reads the build-up and loss of mass on a sensor chip optically.
Experiment [4] addresses T2, vLDLR CR cluster (8 CRs), recombinant, …. Description: SPR; vLDLR cluster expressed without RAP (RAP-).
The target of experiment [5] is T1, LRP1 CR.7 singlet. Description: SPR; CR.7 expressed with RAP (RAP+).

T1 sequence (Q07954 1013-1053): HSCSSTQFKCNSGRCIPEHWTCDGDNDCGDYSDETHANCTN
Chain of LRP1 Cluster IV (commercial) (Homo sapiens) (chain, as listed by the source): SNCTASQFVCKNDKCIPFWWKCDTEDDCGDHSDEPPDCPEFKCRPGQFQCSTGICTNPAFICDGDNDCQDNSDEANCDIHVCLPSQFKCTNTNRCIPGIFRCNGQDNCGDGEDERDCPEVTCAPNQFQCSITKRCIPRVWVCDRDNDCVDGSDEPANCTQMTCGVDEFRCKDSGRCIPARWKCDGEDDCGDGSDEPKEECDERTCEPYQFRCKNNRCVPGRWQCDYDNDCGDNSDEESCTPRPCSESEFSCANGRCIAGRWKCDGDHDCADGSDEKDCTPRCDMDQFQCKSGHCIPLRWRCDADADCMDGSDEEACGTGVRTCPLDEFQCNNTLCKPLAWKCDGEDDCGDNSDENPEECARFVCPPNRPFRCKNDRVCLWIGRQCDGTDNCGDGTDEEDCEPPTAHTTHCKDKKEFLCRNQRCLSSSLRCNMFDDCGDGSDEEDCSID

B1: RAP (commercial; R&D, 4296-LR) (natural protein)
chain: YSREKNQPKPSPKRESGEEFRMEKLNQLWEKAQRLHLPPVRLAELHADLKIQERDELAWKKLKLDGLDEDGEKEARLIRNLNVILAKYGLDGKKDARQVTSNSLSGTQEDGLDDPRLEKLWHKAKTSGKFSGEELDKLWREFLHHKEKVHEYNVLLETLSRTEEIHENVISPSDLSDIKGSVLHSRHTELKEKLRSINQGLDRLRRVSHQGYSTEAEFEEPRVIDLWDLAQSANLTDKELEAFREELKHFEAKIEKHNHYQKQLEIAHEKLRHAESVGDGERVSRSREKHALLEGRTKELGYTVKKHLQDLSGRISRARHNEL
modifications: Limits by convention: cluster IV = CR.21-31 (LDL-receptor class A repeats 21-31); vendor limits are not printed. Likely supplied as an Fc chimera, as for commercial cluster II (Fc omitted; may be a dimer). Ca2+-bound, three disulfides per CR.
On to B1, for which the Kd in experiment [1] was around 2.5 nM.

B2: RAP (commercial; R&D, 4296-LR) (natural protein)
chain: B1 chain
In the case of B2, the Kd in experiment [2] was 67.9 nM; in experiment [3] it was around 1.6 nM; in experiment [4], around 1.7 nM; in experiment [5], 37.6 nM.

The term Kd denotes the concentration at which binding is half-saturated.
